Experimental data: paper PMC2908543, “Uropathogenic Escherichia coli Modulates Immune Responses and Its Curli Fimbriae Interact with the Antimicrobial Peptide LL-37” (PLoS Pathogens, 2010)

How the values were obtained:
[1] = biological target: recombinant CsgA-His6 (E. coli) (UniProt P28307); experiment: thioflavin T fluorescence quantified by confocal microscopy; monomeric CsgA with equimolar LL-37, sLL-37 or VIP and 20 µM ThT, over night at 37°C, washed; fluorescence relative to CsgA alone
[2] = biological target: recombinant CsgA-His6 (E. coli) (UniProt P28307)

human antimicrobial peptide LL-37
ThT fluorescence of CsgA with the peptide at 1:1, relative to CsgA alone (1 arbitrary unit) (arbitrary units) [1]: 0.05 | curli-mediated biofilm formation of E. coli in microtiter plates (crystal violet), reduction by 2.5 µM LL-37; the pair blocked is CsgA with CsgA (polymerization) [2]: > 80%
